Experimental data published in the supplement of paper PMC10567573.

B1: ZNF193 (parent)
chain: QCIECGKSFNRHCNLIRHQKIHTV
B2: WSB1 (parent)
chain: DLKDDGNMMKVLRGHQNWVYSCAF

Variants of: B1
Assay: protein stability index of a GFP-peptide fusion (GPS, HEK-293T) (PSI 1-6); higher = more stable
Details: c terminus: a fixed tail appended
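Note: lentivirally expressed fusions sorted by FACS into six bins by GFP to DsRed ratio, PSI derived from sequencing read proportions per bin multiplied by bin number.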

Compared with C2E, G6S is lower in protein stability index: 2.77 for the first, 2.54 for the second.

First: G6Y
Second: G6T
The protein stability index of the first is lower: 2.17 for the first, 2.23 for the second.

Compared with V24C, V24H is lower in protein stability index: 3.99 for the first, 3.83 for the second.

Going from K20A to N14S, the protein stability index falls from 3.85 to 3.71.

Compared with N14P, I3Q is higher in protein stability index: 2.25 for the first, 4.09 for the second.

Compared with I3R, I3N is higher in protein stability index: 3.59 for the first, 3.65 for the second.

First: R17C
Second: Q1P
The protein stability index of the first is higher: 3.57 for the first, 2.62 for the second.

Compared with Q19P, H22R is higher in protein stability index: 1.99 for the first, 2.89 for the second.

First: S8I
Second: F9S
The protein stability index of the first is higher: 4.05 for the first, 2.83 for the second.

Variants of: B2
Assay: as above
Details: c terminus: a fixed tail appended

Compared with R13T, R13S is lower in protein stability index: 2.21 for the first, 1.53 for the second.

Going from R13K to K10F, the protein stability index rises from 1.58 to 4.7.

Going from K10N to K10D, the protein stability index rises from 1.31 to 1.72.

Compared with K10V, K10A is higher in protein stability index: 2.1 for the first, 2.38 for the second.

First: K10Q
Second: K10I
The protein stability index of the first is lower: 2.02 for the first, 2.34 for the second.

First: K10H
Second: D5Q
The protein stability index of the first is lower: 1.96 for the first, 2 for the second.

Going from D5T to D5R, the protein stability index rises from 3.18 to 3.41.

Going from D5Y to D5A, the protein stability index rises from 2.25 to 2.66.

First: S21E
Second: S21G
The protein stability index of the first is lower: 1.94 for the first, 2.27 for the second.

First: S21H
Second: K3S
The protein stability index of the first is higher: 2.05 for the first, 1.77 for the second.

Compared with K3F, K3C is higher in protein stability index: 2.12 for the first, 2.27 for the second.

First: K3M
Second: K3P
The protein stability index of the first is higher: 2.06 for the first, 1.07 for the second.

Compared with K3H, L12C is higher in protein stability index: 1.93 for the first, 2.38 for the second.

Compared with L12Q, L12T is higher in protein stability index: 1.16 for the first, 1.37 for the second.

Going from L12H to L12P, the protein stability index rises from 1.44 to 2.2.

First: C22N
Second: C22S
The protein stability index of the first is higher: 1.81 for the first, 1.61 for the second.

Going from C22I to C22D, the protein stability index rises from 2.86 to 3.46.

First: N7A
Second: N7C
The protein stability index of the first is lower: 1.09 for the first, 1.83 for the second.

Compared with N7P, N7T is lower in protein stability index: 2.54 for the first, 1.47 for the second.

Going from N7G to N7V, the protein stability index falls from 2.54 to 2.03.

First: N7I
Second: N7M
The protein stability index of the first is higher: 3.63 for the first, 3.16 for the second.

Going from N7R to N7W, the protein stability index rises from 1.71 to 3.11.

Going from N7K to N7Q, the protein stability index falls from 2 to 1.76.

Going from M9L to M9N, the protein stability index rises from 1.61 to 1.89.

First: M9F
Second: M9R
The protein stability index of the first is higher: 2.67 for the first, 1.54 for the second.

First: M9V
Second: M9E
The protein stability index of the first is lower: 1.27 for the first, 2.03 for the second.

Compared with M9I, M9Y is lower in protein stability index: 4.37 for the first, 1.06 for the second.

First: L2D
Second: L2I
The protein stability index of the first is higher: 2.39 for the first, 1.69 for the second.

First: L2C
Second: L2N
The protein stability index of the first is lower: 2.13 for the first, 2.53 for the second.

Going from L2Q to L2A, the protein stability index falls from 1.83 to 1.47.

Compared with L2S, L2E is higher in protein stability index: 1.34 for the first, 1.95 for the second.

Compared with V11Q, V11K is lower in protein stability index: 2.62 for the first, 1.57 for the second.

First: V11L
Second: V11F
The protein stability index of the first is lower: 1.63 for the first, 2.64 for the second.

Compared with V11M, V11S is higher in protein stability index: 2 for the first, 2.79 for the second.

Going from V11T to V11R, the protein stability index falls from 2.41 to 1.69.

Going from G14Y to G14N, the protein stability index falls from 2.35 to 1.26.

First: G14E
Second: G14L
The protein stability index of the first is lower: 1.45 for the first, 2.05 for the second.

First: G14A
Second: G6E
The protein stability index of the first is lower: 1.33 for the first, 2.38 for the second.

Going from G6Q to G6N, the protein stability index rises from 1.58 to 2.12.

First: G6V
Second: G6K
The protein stability index of the first is lower: 1.74 for the first, 1.75 for the second.

First: G6R
Second: G6M
The protein stability index of the first is lower: 1.62 for the first, 1.72 for the second.

Going from G6Y to Y20T, the protein stability index rises from 1.77 to 2.63.

Compared with Y20R, Y20M is lower in protein stability index: 2.05 for the first, 1.61 for the second.

First: Y20Q
Second: Y20A
The protein stability index of the first is lower: 1.68 for the first, 2.28 for the second.

Going from Y20P to D1T, the protein stability index rises from 1.84 to 2.3.

Going from D1P to D1A, the protein stability index rises from 1.59 to 1.62.

Compared with D1H, D1F is higher in protein stability index: 1.78 for the first, 2.47 for the second.

Compared with F24A, F24Y is higher in protein stability index: 2.14 for the first, 2.38 for the second.

Going from F24R to F24W, the protein stability index rises from 2.33 to 4.14.

Going from F24S to F24V, the protein stability index rises from 2.89 to 2.97.

Compared with A23I, A23L is lower in protein stability index: 1.43 for the first, 1.22 for the second.

First: A23M
Second: A23F
The protein stability index of the first is lower: 1.44 for the first, 2.17 for the second.

First: A23G
Second: A23H
The protein stability index of the first is lower: 1.73 for the first, 1.75 for the second.

Going from A23P to H15E, the protein stability index rises from 2.5 to 2.75.

Compared with H15P, H15K is lower in protein stability index: 2.65 for the first, 2.24 for the second.

Compared with N17F, N17P is lower in protein stability index: 2.34 for the first, 1.86 for the second.

Going from N17K to Q16S, the protein stability index rises from 2.1 to 2.54.

Compared with Q16A, Q16C is lower in protein stability index: 2.32 for the first, 2.3 for the second.

First: Q16E
Second: Q16L
The protein stability index of the first is higher: 2.36 for the first, 1.48 for the second.

Going from Q16K to Q16P, the protein stability index rises from 2.41 to 2.52.

Q16I and Q16M are the same in protein stability index: 2.04 for the first, 2.04 for the second.

Going from Q16Y to V19N, the protein stability index rises from 1.4 to 1.44.

Going from V19S to V19I, the protein stability index rises from 1.04 to 2.13.

Compared with V19H, V19F is lower in protein stability index: 2.12 for the first, 1.34 for the second.

First: V19Q
Second: V19C
The protein stability index of the first is lower: 2.07 for the first, 2.73 for the second.

Compared with W18K, W18R is higher in protein stability index: 1.46 for the first, 1.65 for the second.

Going from W18I to W18L, the protein stability index rises from 2.35 to 2.88.

Going from W18Q to W18S, the protein stability index falls from 2.73 to 2.7.

First: W18F
Second: M8H
The protein stability index of the first is lower: 1.47 for the first, 2.34 for the second.

Compared with M8R, M8L is lower in protein stability index: 2.35 for the first, 1.15 for the second.

First: M8K
Second: M8V
The protein stability index of the first is higher: 2.15 for the first, 1.54 for the second.

Compared with D4F, D4Y is lower in protein stability index: 2.77 for the first, 2.28 for the second.

First: D4C
Second: D4M
The protein stability index of the first is higher: 2.88 for the first, 2.4 for the second.

Going from D4L to D4E, the protein stability index falls from 3.75 to 1.91.

D4R gave a protein stability index of 1.59.
